Experiments:
Experiment in all cases: holdup assay
Parameters in all cases: key: below the threshold = too weak to quantify, mostly under pKd 3.1 to 4
DFNB31_3, Q9P202 = molecular target: T1, DFNB31_3, Q9P202
T1 sequence (Q9P202 811-907, limits assumed, looked up): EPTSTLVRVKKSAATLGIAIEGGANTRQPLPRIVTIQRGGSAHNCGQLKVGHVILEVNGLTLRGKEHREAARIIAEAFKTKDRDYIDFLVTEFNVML

DLG4_2, P78352 = molecular target: DLG4_2, P78352
DLG4_3, P78352 = molecular target: DLG4_3, P78352
DVL3, Q92997 = molecular target: T2, DVL3, Q92997
T2 sequence (Q92997 244-331, limits assumed, looked up): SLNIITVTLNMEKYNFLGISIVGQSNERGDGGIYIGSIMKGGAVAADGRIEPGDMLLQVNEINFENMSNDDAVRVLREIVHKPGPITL

GIPC2, Q8TF65 = molecular target: GIPC2, Q8TF65
Chain of GIPC2, Q8TF65 (Q8TF65 112-203): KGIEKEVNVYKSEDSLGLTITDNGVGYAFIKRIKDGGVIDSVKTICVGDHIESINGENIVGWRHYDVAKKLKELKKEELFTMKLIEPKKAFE

GORASP1, Q9BQQ3 = molecular target: GORASP1, Q9BQQ3
Chain of GORASP1, Q9BQQ3 (Q9BQQ3 1-208): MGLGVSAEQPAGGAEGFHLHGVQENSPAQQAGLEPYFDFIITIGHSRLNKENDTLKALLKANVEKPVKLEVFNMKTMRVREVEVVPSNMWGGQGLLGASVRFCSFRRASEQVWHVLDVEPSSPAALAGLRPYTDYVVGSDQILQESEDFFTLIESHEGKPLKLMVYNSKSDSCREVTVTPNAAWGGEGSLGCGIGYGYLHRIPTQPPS

GORASP2, Q9H8Y8 = molecular target: GORASP2, Q9H8Y8
GRIP1_2, Q9Y3R0 = molecular target: T3, GRIP1_2, Q9Y3R0
T3 sequence (Q9Y3R0 145-248, limits assumed, looked up): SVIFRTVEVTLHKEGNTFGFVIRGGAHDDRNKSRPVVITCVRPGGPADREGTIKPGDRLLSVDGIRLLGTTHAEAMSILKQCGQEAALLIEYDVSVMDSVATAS

GRIP1_3, Q9Y3R0 = molecular target: T4, GRIP1_3, Q9Y3R0
T4 sequence (Q9Y3R0 247-346, limits assumed, looked up): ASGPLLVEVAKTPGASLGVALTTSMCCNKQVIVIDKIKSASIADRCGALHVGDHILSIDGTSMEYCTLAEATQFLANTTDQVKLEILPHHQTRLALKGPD

GRIP1_5, Q9Y3R0 = molecular target: T5, GRIP1_5, Q9Y3R0
T5 sequence (Q9Y3R0 568-668, limits assumed, looked up): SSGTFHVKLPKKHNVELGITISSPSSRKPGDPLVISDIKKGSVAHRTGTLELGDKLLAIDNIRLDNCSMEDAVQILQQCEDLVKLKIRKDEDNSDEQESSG

HTRA1, Q92743 = molecular target: HTRA1, Q92743
Chain of HTRA1, Q92743 (Q92743 360-477): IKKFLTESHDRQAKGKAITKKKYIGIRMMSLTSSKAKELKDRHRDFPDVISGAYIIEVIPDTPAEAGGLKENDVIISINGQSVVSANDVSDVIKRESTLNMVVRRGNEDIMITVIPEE

Inadl_10, Q8NI35 = molecular target: Inadl_10, Q8NI35
Chain of Inadl_10, Q8NI35 (Q8NI35 1673-1763): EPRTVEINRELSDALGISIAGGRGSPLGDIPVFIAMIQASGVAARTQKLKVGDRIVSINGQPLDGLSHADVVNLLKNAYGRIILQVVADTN

LIN7A, O14910 = molecular target: T6, LIN7A, O14910
T6 sequence (O14910 103-200, limits assumed, looked up): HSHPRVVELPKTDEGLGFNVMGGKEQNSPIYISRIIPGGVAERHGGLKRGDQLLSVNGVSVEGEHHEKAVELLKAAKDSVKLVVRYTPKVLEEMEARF

LNX1_1, Q8TBB1 = molecular target: LNX1_1, Q8TBB1
Chain of LNX1_1, Q8TBB1 (Q8TBB1 261-371): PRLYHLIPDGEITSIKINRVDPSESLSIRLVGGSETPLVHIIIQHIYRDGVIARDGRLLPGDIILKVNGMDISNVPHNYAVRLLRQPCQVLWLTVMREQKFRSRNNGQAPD

LNX1_3, Q8TBB1 = molecular target: LNX1_3, Q8TBB1
Chain of LNX1_3, Q8TBB1 (Q8TBB1 500-596): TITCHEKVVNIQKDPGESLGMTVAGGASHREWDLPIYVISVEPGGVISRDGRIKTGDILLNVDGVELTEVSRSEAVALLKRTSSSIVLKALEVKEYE

MAGI1_1, Q96QZ7 = molecular target: MAGI1_1, Q96QZ7
Chain of MAGI1_1, Q96QZ7 (Q96QZ7 1-106): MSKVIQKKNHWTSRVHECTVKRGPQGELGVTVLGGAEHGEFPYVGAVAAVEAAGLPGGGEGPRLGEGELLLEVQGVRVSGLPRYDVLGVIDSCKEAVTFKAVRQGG

MAST2, Q6P0Q8 = molecular target: MAST2, Q6P0Q8
Chain of MAST2, Q6P0Q8 (Q6P0Q8 1099-1202): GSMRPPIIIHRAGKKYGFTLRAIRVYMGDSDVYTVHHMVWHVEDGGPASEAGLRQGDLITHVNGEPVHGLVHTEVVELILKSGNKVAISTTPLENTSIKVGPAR

NHERF4_2, Q86UT5 = molecular target: NHERF4_2, Q86UT5
Chain of NHERF4_2, Q86UT5 (Q86UT5 220-308): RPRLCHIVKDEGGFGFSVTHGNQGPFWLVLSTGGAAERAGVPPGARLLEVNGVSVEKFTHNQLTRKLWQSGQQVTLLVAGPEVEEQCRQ

NHERF4_4, Q86UT5 = molecular target: NHERF4_4, Q86UT5
Chain of NHERF4_4, Q86UT5 (Q86UT5 464-550): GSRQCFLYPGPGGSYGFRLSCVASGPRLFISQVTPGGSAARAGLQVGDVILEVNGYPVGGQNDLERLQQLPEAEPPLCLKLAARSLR

PDLIM1, O00151 = molecular target: PDLIM1, O00151
Chain of PDLIM1, O00151 (O00151 1-87): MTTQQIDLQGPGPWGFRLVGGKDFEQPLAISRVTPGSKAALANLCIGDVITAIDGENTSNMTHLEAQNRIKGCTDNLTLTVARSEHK

PDZRN3_1, Q9UPQ7 = molecular target: T7, PDZRN3_1, Q9UPQ7
T7 sequence (Q9UPQ7 244-349, limits assumed, looked up): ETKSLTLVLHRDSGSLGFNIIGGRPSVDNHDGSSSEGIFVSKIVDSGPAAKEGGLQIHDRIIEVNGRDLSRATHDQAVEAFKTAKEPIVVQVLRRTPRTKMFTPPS

PDZRN4_1, Q6ZMN7 = molecular target: PDZRN4_1, Q6ZMN7
Chain of PDZRN4_1, Q6ZMN7 (Q6ZMN7 213-318): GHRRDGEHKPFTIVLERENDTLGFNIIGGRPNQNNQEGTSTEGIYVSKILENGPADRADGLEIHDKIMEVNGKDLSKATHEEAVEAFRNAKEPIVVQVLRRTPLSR

RADIL, Q96JH8 = molecular target: T8, RADIL, Q96JH8
T8 sequence (Q96JH8 971-1071, limits assumed, looked up): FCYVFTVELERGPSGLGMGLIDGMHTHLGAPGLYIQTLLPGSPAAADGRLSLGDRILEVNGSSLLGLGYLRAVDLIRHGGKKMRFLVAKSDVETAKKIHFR

RAPGEF6, Q8TEU7 = molecular target: T9, RAPGEF6, Q8TEU7
T9 sequence (Q8TEU7 525-625, limits assumed, looked up): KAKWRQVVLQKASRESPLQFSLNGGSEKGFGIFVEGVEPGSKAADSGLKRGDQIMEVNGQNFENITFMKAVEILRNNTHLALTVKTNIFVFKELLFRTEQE

RHPN1, Q8TCX5 = molecular target: T10, RHPN1, Q8TCX5
T10 sequence (Q8TCX5 508-602, limits assumed, looked up): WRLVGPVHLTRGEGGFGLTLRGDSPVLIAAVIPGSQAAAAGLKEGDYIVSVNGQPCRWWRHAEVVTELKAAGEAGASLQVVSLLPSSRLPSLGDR

SCRIB_1, Q14160 = molecular target: SCRIB_1, Q14160
Chain of SCRIB_1, Q14160 (Q14160 718-814): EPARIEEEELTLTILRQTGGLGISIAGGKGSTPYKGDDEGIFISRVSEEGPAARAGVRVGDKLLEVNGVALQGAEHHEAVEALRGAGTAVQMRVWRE

TJP2_1, Q9UDY2 = molecular target: TJP2_1, Q9UDY2
Chain of TJP2_1, Q9UDY2 (Q9UDY2 24-128): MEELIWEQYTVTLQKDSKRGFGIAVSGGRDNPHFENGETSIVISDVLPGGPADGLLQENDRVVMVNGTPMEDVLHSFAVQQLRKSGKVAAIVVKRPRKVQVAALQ

[1] = plain residues with an end cap or a label only (N-terminal biotin on a linker: ado-ado)
[2] = modified: phospho on T at position -2 from the C-terminal residue

Chain of DLG4_3, P78352 (P78352 306-403): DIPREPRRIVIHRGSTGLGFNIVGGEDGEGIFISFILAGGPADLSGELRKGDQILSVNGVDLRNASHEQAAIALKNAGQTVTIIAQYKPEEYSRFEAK
Chain of DLG4_2, P78352 (P78352 155-259): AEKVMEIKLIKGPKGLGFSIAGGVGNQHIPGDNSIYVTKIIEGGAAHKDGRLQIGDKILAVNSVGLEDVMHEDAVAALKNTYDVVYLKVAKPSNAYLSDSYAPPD

Binder: LPHPHSTTRV [NLGN2, Q8NFZ4]
- pKd (DFNB31_3, Q9P202; [1]): below the threshold
- pKd (DLG4_2, P78352; [1]): 3.86
- pKd (DLG4_3, P78352; [1]): 3.82
- pKd (DVL3, Q92997; [1]): below the threshold
- pKd (GIPC2, Q8TF65; [1]): below the threshold
- pKd (GORASP1, Q9BQQ3; [1]): 3.58
- pKd (GORASP2, Q9H8Y8; [1]): 3.92
- pKd (GRIP1_2, Q9Y3R0; [1]): below the threshold
- pKd (GRIP1_3, Q9Y3R0; [1]): below the threshold
- pKd (GRIP1_5, Q9Y3R0; [1]): below the threshold
- pKd (HTRA1, Q92743; [1]): 3.6
- pKd (Inadl_10, Q8NI35; [1]): below the threshold
- pKd (LIN7A, O14910; [1]): below the threshold
- pKd (LNX1_1, Q8TBB1; [1]): 3.64
- pKd (LNX1_3, Q8TBB1; [1]): below the threshold
- pKd (MAGI1_1, Q96QZ7; [1]): below the threshold
- pKd (MAST2, Q6P0Q8; [1]): 5.19
- pKd (NHERF4_2, Q86UT5; [1]): below the threshold
- pKd (NHERF4_4, Q86UT5; [1]): below the threshold
- pKd (PDLIM1, O00151; [1]): below the threshold
- pKd (PDZRN3_1, Q9UPQ7; [1]): below the threshold
- pKd (PDZRN4_1, Q6ZMN7; [1]): below the threshold
- pKd (RADIL, Q96JH8; [1]): 3.87
- pKd (RAPGEF6, Q8TEU7; [1]): below the threshold
- pKd (RHPN1, Q8TCX5; [1]): 3.83
- pKd (SCRIB_1, Q14160; [1]): below the threshold
- pKd (TJP2_1, Q9UDY2; [1]): 3.97

Binder: RLQRRRETQV [HPV18-E6_-2P, P06463]
- pKd (DFNB31_3, Q9P202; [2]): 3.9
- pKd (DLG4_2, P78352; [2]): 3.65
- pKd (DLG4_3, P78352; [2]): 3.51
- pKd (DVL3, Q92997; [2]): below the threshold
- pKd (GIPC2, Q8TF65; [2]): below the threshold
- pKd (GORASP1, Q9BQQ3; [2]): below the threshold
- pKd (GORASP2, Q9H8Y8; [2]): 4.13
- pKd (GRIP1_2, Q9Y3R0; [2]): below the threshold
- pKd (GRIP1_3, Q9Y3R0; [2]): below the threshold
- pKd (GRIP1_5, Q9Y3R0; [2]): below the threshold
- pKd (HTRA1, Q92743; [2]): below the threshold
- pKd (Inadl_10, Q8NI35; [2]): below the threshold
- pKd (LIN7A, O14910; [2]): below the threshold
- pKd (LNX1_1, Q8TBB1; [2]): below the threshold
- pKd (LNX1_3, Q8TBB1; [2]): below the threshold
- pKd (MAGI1_1, Q96QZ7; [2]): below the threshold
- pKd (MAST2, Q6P0Q8; [2]): below the threshold
- pKd (NHERF4_2, Q86UT5; [2]): below the threshold
- pKd (NHERF4_4, Q86UT5; [2]): below the threshold
- pKd (PDLIM1, O00151; [2]): below the threshold
- pKd (PDZRN3_1, Q9UPQ7; [2]): below the threshold
- pKd (PDZRN4_1, Q6ZMN7; [2]): below the threshold
- pKd (RADIL, Q96JH8; [2]): below the threshold
- pKd (RAPGEF6, Q8TEU7; [2]): below the threshold
- pKd (RHPN1, Q8TCX5; [2]): below the threshold
- pKd (SCRIB_1, Q14160; [2]): below the threshold
- pKd (TJP2_1, Q9UDY2; [2]): below the threshold

Binder: QGLAERISVL [PRKD2, Q9BZL6]
- pKd (DFNB31_3, Q9P202; [1]): 4.26
- pKd (DLG4_2, P78352; [1]): 3.48
- pKd (DLG4_3, P78352; [1]): below the threshold
- pKd (DVL3, Q92997; [1]): below the threshold
- pKd (GIPC2, Q8TF65; [1]): below the threshold
- pKd (GORASP1, Q9BQQ3; [1]): 4.08
- pKd (GORASP2, Q9H8Y8; [1]): 4.16
- pKd (GRIP1_2, Q9Y3R0; [1]): below the threshold
- pKd (GRIP1_3, Q9Y3R0; [1]): below the threshold
- pKd (GRIP1_5, Q9Y3R0; [1]): below the threshold
- pKd (HTRA1, Q92743; [1]): 4.77
- pKd (Inadl_10, Q8NI35; [1]): below the threshold
- pKd (LIN7A, O14910; [1]): below the threshold
- pKd (LNX1_1, Q8TBB1; [1]): 3.86
- pKd (LNX1_3, Q8TBB1; [1]): below the threshold
- pKd (MAGI1_1, Q96QZ7; [1]): below the threshold
- pKd (MAST2, Q6P0Q8; [1]): 5.53
- pKd (NHERF4_2, Q86UT5; [1]): below the threshold
- pKd (NHERF4_4, Q86UT5; [1]): 3.97
- pKd (PDLIM1, O00151; [1]): below the threshold
- pKd (PDZRN3_1, Q9UPQ7; [1]): 3.84
- pKd (PDZRN4_1, Q6ZMN7; [1]): 3.66
- pKd (RADIL, Q96JH8; [1]): 3.99
- pKd (RAPGEF6, Q8TEU7; [1]): below the threshold
- pKd (RHPN1, Q8TCX5; [1]): 4.62
- pKd (SCRIB_1, Q14160; [1]): 3.77
- pKd (TJP2_1, Q9UDY2; [1]): below the threshold

Binder: PRISRSQSEL [CCDC134, Q9H6E4]
- pKd (DFNB31_3, Q9P202; [1]): 3.48
- pKd (DLG4_2, P78352; [1]): below the threshold
- pKd (DLG4_3, P78352; [1]): below the threshold
- pKd (DVL3, Q92997; [1]): below the threshold
- pKd (GIPC2, Q8TF65; [1]): below the threshold
- pKd (GORASP1, Q9BQQ3; [1]): below the threshold
- pKd (GORASP2, Q9H8Y8; [1]): below the threshold
- pKd (GRIP1_2, Q9Y3R0; [1]): below the threshold
- pKd (GRIP1_3, Q9Y3R0; [1]): below the threshold
- pKd (GRIP1_5, Q9Y3R0; [1]): below the threshold
- pKd (HTRA1, Q92743; [1]): below the threshold
- pKd (Inadl_10, Q8NI35; [1]): below the threshold
- pKd (LIN7A, O14910; [1]): 3.52
- pKd (LNX1_1, Q8TBB1; [1]): 3.67
- pKd (LNX1_3, Q8TBB1; [1]): below the threshold
- pKd (MAGI1_1, Q96QZ7; [1]): below the threshold
- pKd (MAST2, Q6P0Q8; [1]): 5.76
- pKd (NHERF4_2, Q86UT5; [1]): below the threshold
- pKd (NHERF4_4, Q86UT5; [1]): below the threshold
- pKd (PDLIM1, O00151; [1]): below the threshold
- pKd (PDZRN3_1, Q9UPQ7; [1]): 3.65
- pKd (PDZRN4_1, Q6ZMN7; [1]): below the threshold
- pKd (RADIL, Q96JH8; [1]): below the threshold
- pKd (RAPGEF6, Q8TEU7; [1]): below the threshold
- pKd (RHPN1, Q8TCX5; [1]): below the threshold
- pKd (SCRIB_1, Q14160; [1]): below the threshold
- pKd (TJP2_1, Q9UDY2; [1]): below the threshold

Reference: PMC9482650, “Quantitative fragmentomics allow affinity mapping of interactomes” (Nature Communications, 2022)
